B1: GST–FEN-1 fusion protein containing human FEN-1 amino acids 328–380 (domain or fragment, UniProt P39748 328-380, looked up)
chain: LSKSRQGSTQGRLDDFFKVTGSLSSAKRKEPEPKGSTKKKAKTGAAGKFKRGK
B2: GST–FEN-1 fusion protein containing human FEN-1 amino acids 363–380 (domain or fragment, UniProt P39748 363-380, looked up)
chain: STKKKAKTGAAGKFKRGK
B3: FEN-1ΔP (residues 337–344 are deleted) (enzyme, human, UniProt P39748 1-380, looked up)
chain: MGIQGLAKLIADVAPSAIRENDIKSYFGRKVAIDASMSIYQFLIAVRQGGDVLQNEEGETTSHLMGMFYRTIRMMENGIKPVYVFDGKPPQLKSGELAKRSERRAEAEKQLQQAQAAGAEQEVEKFTKRLVKVTKQHNDECKHLLSLMGIPYLDAPSEAEASCAALVKAGKVYAAATEDMDCLTFGSPVLMRHLTASEAKKLPIQEFHLSRILQELGLNQEQFVDLCILLGSDYCESIRGIGPKRAVDLIQKHKSIEEIVRRLDPNKYPVPENWLHKEAHQLFLEPEVLDPESVELKWSEPNEEELIKFMCGEKQFSEERIRSGVKRLSKSRQGSTKVTGSLSSAKRKEPEPKGSTKKKAKTGAAGKFKRGK
B4: GST–FEN-1 fusion protein containing human FEN-1 amino acids 254–380 (domain or fragment, UniProt P39748 254-380, looked up)
chain: KSIEEIVRRLDPNKYPVPENWLHKEAHQLFLEPEVLDPESVELKWSEPNEEELIKFMCGEKQFSEERIRSGVKRLSKSRQGSTQGRLDDFFKVTGSLSSAKRKEPEPKGSTKKKAKTGAAGKFKRGK

Experiments:
[1] = biological target: Recombinant His-tagged BLM protein (human, UniProt P54132 1-1417); assay: pull-down
Sequence of Recombinant His-tagged BLM protein (P54132 whole entry): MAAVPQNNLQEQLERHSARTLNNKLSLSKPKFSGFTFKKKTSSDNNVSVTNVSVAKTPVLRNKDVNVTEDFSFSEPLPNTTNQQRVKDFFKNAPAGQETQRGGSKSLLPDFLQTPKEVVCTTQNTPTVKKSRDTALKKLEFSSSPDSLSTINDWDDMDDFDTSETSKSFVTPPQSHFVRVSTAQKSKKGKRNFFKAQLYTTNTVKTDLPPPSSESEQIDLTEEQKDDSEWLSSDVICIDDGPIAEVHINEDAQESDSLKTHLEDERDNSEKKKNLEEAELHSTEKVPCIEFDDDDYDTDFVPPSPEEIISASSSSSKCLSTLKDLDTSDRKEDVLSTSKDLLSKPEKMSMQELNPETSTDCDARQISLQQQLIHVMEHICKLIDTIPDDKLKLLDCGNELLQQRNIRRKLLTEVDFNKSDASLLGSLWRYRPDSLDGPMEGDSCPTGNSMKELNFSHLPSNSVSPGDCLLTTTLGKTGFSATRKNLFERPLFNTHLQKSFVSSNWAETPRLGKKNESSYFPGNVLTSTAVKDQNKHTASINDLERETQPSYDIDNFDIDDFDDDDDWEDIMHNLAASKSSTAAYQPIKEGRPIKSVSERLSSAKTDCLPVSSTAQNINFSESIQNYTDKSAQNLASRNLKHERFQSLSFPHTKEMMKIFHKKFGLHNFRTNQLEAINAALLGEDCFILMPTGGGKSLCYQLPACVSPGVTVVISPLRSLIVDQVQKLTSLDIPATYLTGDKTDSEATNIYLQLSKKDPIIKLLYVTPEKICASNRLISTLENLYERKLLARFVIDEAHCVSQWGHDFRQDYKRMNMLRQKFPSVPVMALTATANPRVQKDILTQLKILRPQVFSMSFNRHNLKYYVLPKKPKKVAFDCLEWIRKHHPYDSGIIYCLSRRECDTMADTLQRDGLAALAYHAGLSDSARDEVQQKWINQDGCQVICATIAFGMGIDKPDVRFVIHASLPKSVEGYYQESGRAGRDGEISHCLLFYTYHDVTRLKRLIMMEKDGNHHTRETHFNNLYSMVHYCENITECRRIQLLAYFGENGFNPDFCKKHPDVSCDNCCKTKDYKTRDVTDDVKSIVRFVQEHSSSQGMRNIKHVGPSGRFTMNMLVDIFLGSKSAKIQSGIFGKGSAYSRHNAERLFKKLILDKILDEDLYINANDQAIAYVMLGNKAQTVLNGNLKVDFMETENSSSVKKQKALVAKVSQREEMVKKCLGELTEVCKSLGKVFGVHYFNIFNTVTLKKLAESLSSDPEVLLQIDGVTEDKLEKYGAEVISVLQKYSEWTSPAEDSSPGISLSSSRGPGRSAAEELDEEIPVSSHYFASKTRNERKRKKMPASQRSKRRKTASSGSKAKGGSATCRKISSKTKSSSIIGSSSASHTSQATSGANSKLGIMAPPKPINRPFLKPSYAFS

[2] = biological target: T1, Recombinant His-tagged WRN protein (human, UniProt Q14191 1-1432); assay: pull-down
T1 sequence (Q14191 whole entry): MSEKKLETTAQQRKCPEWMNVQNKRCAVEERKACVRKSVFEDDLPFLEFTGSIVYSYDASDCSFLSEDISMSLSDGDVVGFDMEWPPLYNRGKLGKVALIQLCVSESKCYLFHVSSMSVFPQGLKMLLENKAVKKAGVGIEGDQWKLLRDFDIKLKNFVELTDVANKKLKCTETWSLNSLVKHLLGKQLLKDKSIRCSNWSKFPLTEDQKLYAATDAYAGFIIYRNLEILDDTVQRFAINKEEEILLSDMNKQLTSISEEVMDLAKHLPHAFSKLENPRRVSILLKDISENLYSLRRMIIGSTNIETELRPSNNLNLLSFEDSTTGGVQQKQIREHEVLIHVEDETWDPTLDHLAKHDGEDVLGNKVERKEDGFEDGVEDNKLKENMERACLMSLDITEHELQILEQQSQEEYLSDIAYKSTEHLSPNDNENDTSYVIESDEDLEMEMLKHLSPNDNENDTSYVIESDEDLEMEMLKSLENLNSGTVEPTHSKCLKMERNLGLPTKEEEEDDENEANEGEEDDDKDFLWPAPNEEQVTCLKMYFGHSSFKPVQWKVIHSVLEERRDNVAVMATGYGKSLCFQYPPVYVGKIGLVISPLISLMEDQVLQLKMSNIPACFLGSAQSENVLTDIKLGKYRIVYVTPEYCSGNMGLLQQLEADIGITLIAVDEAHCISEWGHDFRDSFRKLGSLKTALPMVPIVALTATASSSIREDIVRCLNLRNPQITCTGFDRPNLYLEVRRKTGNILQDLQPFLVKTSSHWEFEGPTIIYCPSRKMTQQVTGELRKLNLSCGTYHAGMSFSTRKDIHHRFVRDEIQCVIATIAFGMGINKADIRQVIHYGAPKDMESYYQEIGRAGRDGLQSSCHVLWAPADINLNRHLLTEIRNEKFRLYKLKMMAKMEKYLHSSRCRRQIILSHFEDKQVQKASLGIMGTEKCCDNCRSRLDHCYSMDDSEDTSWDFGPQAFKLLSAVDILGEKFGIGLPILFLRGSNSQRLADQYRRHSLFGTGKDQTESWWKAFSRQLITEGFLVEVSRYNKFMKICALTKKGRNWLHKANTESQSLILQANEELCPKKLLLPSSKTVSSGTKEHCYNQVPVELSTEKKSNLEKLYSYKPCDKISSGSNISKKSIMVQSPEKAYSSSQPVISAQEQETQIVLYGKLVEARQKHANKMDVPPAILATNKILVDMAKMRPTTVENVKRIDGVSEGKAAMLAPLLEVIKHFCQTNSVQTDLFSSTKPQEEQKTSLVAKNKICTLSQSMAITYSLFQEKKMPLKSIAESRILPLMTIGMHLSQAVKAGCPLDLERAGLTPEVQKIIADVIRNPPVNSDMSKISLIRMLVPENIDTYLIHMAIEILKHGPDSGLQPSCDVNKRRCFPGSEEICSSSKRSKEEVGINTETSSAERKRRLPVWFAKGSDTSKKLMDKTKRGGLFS

[3] = biological target: T1, Recombinant His-tagged WRN protein; assay: ELISA

Row | Binder | binding result [1] | binding result [2] | binding result [3]
1 | B1 | binds | binds | 
2 | B2 | binds | binds | 
3 | B3 |  |  | binds
4 | B4 | binds | binds | 

From paper PMC1301591 (Nucleic Acids Research, 2005)
